± gives the uncertainty stated by the source.
B1: Storkhead-box protein 2, residues 64 to 141; numbered along this chain, Q9P2F5 (parent)
chain: SPISQSQFIPLGEILCLAISAMNSARKPVTQEALMEHLTTCFPGVPTPSQEILRHTLNTLVRERKIYPTPDGYFIVTP

Variants of: B1
Experiment: abundance fitness (aPCA) (normalised: wild type 0, dead -1); higher = more abundant; growth selection in yeast, the domain comes from the species named
Settings: Homo sapiens

Abundance fitness of substitutions, site by site:
C41: P -0.534 ± 0.1 | Q -0.292 ± 0.16 | R -0.05 ± 0.047 | S 0.021 ± 0.065 | T -0.105 ± 0.072 | V -0.056 ± 0.035 | W -0.088 ± 0.056 | Y -0.062 ± 0.09
F42: A -0.05 ± 0.12 | D 0.273 ± 0.28 | E 0.108 ± 0.13 | I 0.009 ± 0.15 | L -0.08 ± 0.1 | M 0.033 ± 0.2 | N 0.106 ± 0.21 | P -0.057 ± 0.1 | Q -0.661 ± 0.47 | R 0.001 ± 0.1 | T 0.176 ± 0.17 | V -0.045 ± 0.11 | W -0.086 ± 0.047
P43: A -0.137 ± 0.056 | C -0.135 ± 0.026 | D -0.119 ± 0.17 | E -0.006 ± 0.065 | F -0.184 ± 0.093 | G -0.101 ± 0.036 | H -0.001 ± 0.11 | I -0.092 ± 0.11 | K 0.048 ± 0.057 | L -0.09 ± 0.055 | M -0.21 ± 0.071 | Q -0.057 ± 0.064 | S -0.023 ± 0.048 | T -0.028 ± 0.067 | V -0.076 ± 0.047 | W -0.23 ± 0.055 | Y -0.109 ± 0.093
G44: A -0.054 ± 0.044 | C -0.046 ± 0.064 | D 0.073 ± 0.12 | F -0.156 ± 0.069 | H -0.023 ± 0.077 | L -0.091 ± 0.034 | M -0.024 ± 0.055 | N 0.024 ± 0.17 | P -0.063 ± 0.053 | Q -0.055 ± 0.068 | R 0.117 ± 0.032 | S 0.016 ± 0.042 | T -0.037 ± 0.054 | V -0.111 ± 0.035 | W -0.103 ± 0.056 | Y -0.036 ± 0.12
V45: A -0.088 ± 0.043 | C -0.003 ± 0.05 | D -0.207 ± 0.091 | E -0.155 ± 0.067 | F 0.067 ± 0.069 | H 0.078 ± 0.12 | I 0.026 ± 0.08 | K -0.222 ± 0.091 | L -0.05 ± 0.031 | M -0.109 ± 0.06 | N -0.209 ± 0.13 | P -0.168 ± 0.064 | Q -0.007 ± 0.076 | R -0.06 ± 0.03 | S -0.113 ± 0.043 | T -0.031 ± 0.061 | W 0.028 ± 0.042 | Y 0.051 ± 0.12
P46: A -0.079 ± 0.046 | C -0.078 ± 0.067 | D -0.081 ± 0.075 | E -0.067 ± 0.039 | F -0.408 ± 0.08 | G -0.133 ± 0.032 | H -0.14 ± 0.072 | I 0.015 ± 0.085 | K -0.243 ± 0.1 | L -0.128 ± 0.035 | M -0.107 ± 0.058 | N -0.124 ± 0.12 | Q -0.187 ± 0.06 | R -0.157 ± 0.034 | S -0.15 ± 0.045 | T -0.03 ± 0.056 | V -0.086 ± 0.04 | W -0.174 ± 0.044 | Y -0.402 ± 0.17
T47: A -0.082 ± 0.034 | C -0.115 ± 0.053 | D -0.277 ± 0.067 | E -0.199 ± 0.05 | F -0.273 ± 0.055 | G -0.197 ± 0.026 | H -0.166 ± 0.12 | I 0.11 ± 0.064 | K 0.021 ± 0.056 | L -0.073 ± 0.032 | N -0.151 ± 0.1 | P -0.191 ± 0.049 | Q -0.067 ± 0.054 | R -0.018 ± 0.032 | S -0.092 ± 0.041 | V 0.071 ± 0.031 | W -0.397 ± 0.04 | Y -0.132 ± 0.085
P48: A -0.186 ± 0.044 | C -0.085 ± 0.048 | D -0.398 ± 0.055 | E -0.447 ± 0.069 | F -0.141 ± 0.072 | G -0.311 ± 0.034 | H -0.354 ± 0.065 | I -0.016 ± 0.069 | K -0.44 ± 0.15 | L -0.259 ± 0.039 | M -0.099 ± 0.13 | N -0.5 ± 0.099 | Q -0.156 ± 0.071 | R -0.415 ± 0.035 | S -0.418 ± 0.039 | T -0.357 ± 0.054 | W -0.28 ± 0.045 | Y -0.201 ± 0.06
S49: A -0.109 ± 0.035 | C -0.068 ± 0.053 | E -0.24 ± 0.063 | F -0.887 ± 0.1 | G -0.068 ± 0.032 | H -0.225 ± 0.077 | I -0.835 ± 0.12 | K -0.139 ± 0.055 | L -0.684 ± 0.055 | M -0.68 ± 0.1 | N -0.173 ± 0.11 | P -0.27 ± 0.045 | Q -0.265 ± 0.082 | R -0.21 ± 0.036 | T -0.16 ± 0.055 | V -0.575 ± 0.043
Q50: A -0.011 ± 0.053 | C -0.076 ± 0.1 | D 0.118 ± 0.15 | F 0.013 ± 0.16 | G 0.053 ± 0.044 | H -0.022 ± 0.1 | I 0.047 ± 0.12 | K -0.014 ± 0.097 | M 0.036 ± 0.083 | N -0.08 ± 0.16 | P -0.055 ± 0.081 | R -0.036 ± 0.043 | S -0.034 ± 0.069 | T -0.08 ± 0.086 | V -0.131 ± 0.059 | W -0.082 ± 0.067 | Y 0.174 ± 0.19
E51: A -0.085 ± 0.048 | C -0.104 ± 0.077 | D 0.028 ± 0.11 | F -0.207 ± 0.1 | G -0.1 ± 0.044 | H 0.027 ± 0.18 | K 0.003 ± 0.098 | M -0.203 ± 0.099 | N -0.301 ± 0.17 | P 0.009 ± 0.052 | Q -0.099 ± 0.071 | R -0.231 ± 0.049 | S -0.039 ± 0.056 | T -0.085 ± 0.088 | V -0.145 ± 0.051 | W -0.145 ± 0.062 | Y -0.161 ± 0.1
I52: A -0.085 ± 0.045 | C -0.038 ± 0.094 | D -0.043 ± 0.11 | E -0.042 ± 0.057 | F 0.011 ± 0.088 | G -0.083 ± 0.036 | H 0.011 ± 0.092 | K -0.029 ± 0.072 | L -0.05 ± 0.052 | M 0.056 ± 0.064 | N -0.46 ± 0.17 | P -0.654 ± 0.09 | R -0.086 ± 0.045 | S -0.134 ± 0.054 | T 0.025 ± 0.069 | V 0.035 ± 0.044 | W -0.019 ± 0.056 | Y 0.171 ± 0.27
L53: A -0.124 ± 0.058 | C -0.113 ± 0.14 | D -0.747 ± 0.4 | E -0.929 ± 0.15 | F -0.113 ± 0.12 | G -0.856 ± 0.068 | H -0.756 ± 0.18 | I -0.007 ± 0.11 | K -0.943 ± 0.28 | M 0.019 ± 0.047 | P -1.11 ± 0.19 | Q -0.491 ± 0.11 | R -0.913 ± 0.092 | S -0.586 ± 0.053 | T 0.026 ± 0.066 | V -0.003 ± 0.047 | W -0.141 ± 0.024 | Y -0.108 ± 0.079
R54: A 0.015 ± 0.1 | C -0.193 ± 0.17 | D -0.365 ± 0.2 | E 0.013 ± 0.15 | F -0.082 ± 0.24 | G 0.057 ± 0.1 | H -0.367 ± 0.14 | I -0.037 ± 0.19 | K -0.027 ± 0.3 | L -0.011 ± 0.039 | M 0 ± 0.081 | N 0.012 ± 0.25 | P -0.401 ± 0.11 | Q 0.066 ± 0.082 | S 0.015 ± 0.06 | V -0.012 ± 0.1 | W -0.285 ± 0.091 | Y -0.117 ± 0.33
H55: A 0.007 ± 0.045 | C -0.033 ± 0.058 | D 0.07 ± 0.074 | E 0.028 ± 0.052 | F -0.057 ± 0.08 | G 0.06 ± 0.035 | I -0.103 ± 0.12 | K 0.007 ± 0.07 | L -0.088 ± 0.039 | N 0.109 ± 0.083 | P -0.223 ± 0.051 | R -0.055 ± 0.045 | S -0.005 ± 0.04 | T 0.065 ± 0.051 | V -0.035 ± 0.039 | W -0.087 ± 0.091 | Y -0.181 ± 0.11
T56: A -0.046 ± 0.05 | C -0.056 ± 0.074 | D -0.069 ± 0.1 | E -0.087 ± 0.087 | F -0.036 ± 0.034 | G -0.051 ± 0.043 | K -0.052 ± 0.1 | L 0.054 ± 0.043 | M 0.058 ± 0.085 | P -1.03 ± 0.12 | Q -0.045 ± 0.066 | S -0.005 ± 0.045 | V -0.042 ± 0.044 | W -0.022 ± 0.058 | Y -0.26 ± 0.23
L57: A -0.576 ± 0.058 | C -0.202 ± 0.083 | D -0.793 ± 0.24 | E -0.784 ± 0.26 | F -0.306 ± 0.18 | G -1.01 ± 0.082 | H -1.1 ± 0.21 | I -0.04 ± 0.11 | K -0.953 ± 0.28 | M -0.066 ± 0.069 | P -1.22 ± 0.14 | Q -0.924 ± 0.26 | R -1.11 ± 0.12 | S -0.799 ± 0.068 | T -0.193 ± 0.058 | W -0.269 ± 0.076
N58: A 0.033 ± 0.04 | C -0.052 ± 0.072 | D -0.005 ± 0.078 | E 0.001 ± 0.065 | F -0.172 ± 0.068 | G 0 ± 0.031 | H 0.017 ± 0.13 | I -0.041 ± 0.076 | K -0.071 ± 0.059 | L -0.025 ± 0.041 | P -0.678 ± 0.074 | Q -0.03 ± 0.037 | R -0.016 ± 0.036 | S -0.03 ± 0.048 | T -0.018 ± 0.056 | V 0.002 ± 0.035 | W -0.093 ± 0.054 | Y -0.203 ± 0.11
T59: A 0.017 ± 0.045 | C 0.122 ± 0.076 | D -0.016 ± 0.063 | E 0.049 ± 0.061 | F 0.018 ± 0.064 | G 0.015 ± 0.033 | H 0.049 ± 0.082 | I 0.029 ± 0.074 | K -0.047 ± 0.077 | L 0.067 ± 0.034 | M -0.023 ± 0.061 | N -0.087 ± 0.056 | P -0.921 ± 0.1 | Q -0.031 ± 0.052 | R -0.001 ± 0.036 | S 0.104 ± 0.043 | V 0.035 ± 0.035 | W 0.062 ± 0.048
L60: A -0.213 ± 0.044 | C -0.107 ± 0.076 | E -0.835 ± 0.11 | F -0.401 ± 0.068 | G -0.706 ± 0.057 | H -0.719 ± 0.11 | I -0.384 ± 0.1 | M -0.126 ± 0.055 | N -0.927 ± 0.17 | P -1.07 ± 0.099 | Q -0.342 ± 0.049 | R -1.07 ± 0.079 | S -0.828 ± 0.052 | T -0.87 ± 0.075 | V -0.587 ± 0.052 | W -0.525 ± 0.067 | Y -0.666 ± 0.12
V61: A 0.029 ± 0.042 | C 0.04 ± 0.078

Source: the Human Domainome abundance scans (Beltran et al. 2025)
